From paper PMC5779224, “Autoinhibition of ankyrin-B/G membrane target bindings by intrinsically disordered segments from the tail regions” (eLife, 2017)

Legend:
Details in all cases: both partners purified
[1] = target: T1, AnkG 38–855 (AnkG MBD-AI-c protein; MBD + partial AI-c) (rat, UniProt O70511-1 38-855); test: ITC; VP-ITC MicroCal, 25 °C; proteins in 50 mM Tris-HCl pH 7.8, 1 mM DTT, 1 mM EDTA with 100 mM or 500 mM NaCl as required; who was titrated is not told
T1 construct: numbers count on: rat AnkG NM_001033984.1 (MBD-UPA); also called AnkG WT; source: E. coli BL21 (DE3), purified (Ni2+-NTA, size exclusion)
T1 sequence (looked up): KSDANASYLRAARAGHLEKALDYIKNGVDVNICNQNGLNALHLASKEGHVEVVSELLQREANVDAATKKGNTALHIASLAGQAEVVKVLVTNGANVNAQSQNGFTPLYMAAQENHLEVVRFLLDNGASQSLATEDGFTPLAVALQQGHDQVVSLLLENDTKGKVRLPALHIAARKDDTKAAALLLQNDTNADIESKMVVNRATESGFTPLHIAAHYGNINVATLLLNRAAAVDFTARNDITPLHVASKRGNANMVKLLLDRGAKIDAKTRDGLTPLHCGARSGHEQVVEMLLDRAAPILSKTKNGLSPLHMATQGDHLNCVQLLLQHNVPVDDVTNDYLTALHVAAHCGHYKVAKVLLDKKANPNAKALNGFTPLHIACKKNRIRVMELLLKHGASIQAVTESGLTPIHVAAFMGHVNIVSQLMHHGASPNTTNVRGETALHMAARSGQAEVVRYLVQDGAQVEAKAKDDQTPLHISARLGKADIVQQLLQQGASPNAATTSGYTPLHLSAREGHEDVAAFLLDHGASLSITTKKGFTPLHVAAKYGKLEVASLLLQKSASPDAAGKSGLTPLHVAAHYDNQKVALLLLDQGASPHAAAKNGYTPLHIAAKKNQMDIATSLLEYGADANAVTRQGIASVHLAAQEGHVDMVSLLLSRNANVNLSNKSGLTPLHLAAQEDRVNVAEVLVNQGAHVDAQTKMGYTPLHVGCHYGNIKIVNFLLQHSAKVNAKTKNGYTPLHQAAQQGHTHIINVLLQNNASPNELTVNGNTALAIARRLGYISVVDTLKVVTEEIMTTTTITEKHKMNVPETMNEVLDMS

[2] = target: T2, AnkG 38–903 (MBD + AI-c + AI-b) (rat, UniProt O70511-1 38-903); test: as above
T2 construct: numbers count on: rat AnkG NM_001033984.1 (MBD-UPA); also called extended AnkG MBD; source: E. coli BL21 (DE3), purified (Ni2+-NTA, size exclusion)
T2 sequence (looked up): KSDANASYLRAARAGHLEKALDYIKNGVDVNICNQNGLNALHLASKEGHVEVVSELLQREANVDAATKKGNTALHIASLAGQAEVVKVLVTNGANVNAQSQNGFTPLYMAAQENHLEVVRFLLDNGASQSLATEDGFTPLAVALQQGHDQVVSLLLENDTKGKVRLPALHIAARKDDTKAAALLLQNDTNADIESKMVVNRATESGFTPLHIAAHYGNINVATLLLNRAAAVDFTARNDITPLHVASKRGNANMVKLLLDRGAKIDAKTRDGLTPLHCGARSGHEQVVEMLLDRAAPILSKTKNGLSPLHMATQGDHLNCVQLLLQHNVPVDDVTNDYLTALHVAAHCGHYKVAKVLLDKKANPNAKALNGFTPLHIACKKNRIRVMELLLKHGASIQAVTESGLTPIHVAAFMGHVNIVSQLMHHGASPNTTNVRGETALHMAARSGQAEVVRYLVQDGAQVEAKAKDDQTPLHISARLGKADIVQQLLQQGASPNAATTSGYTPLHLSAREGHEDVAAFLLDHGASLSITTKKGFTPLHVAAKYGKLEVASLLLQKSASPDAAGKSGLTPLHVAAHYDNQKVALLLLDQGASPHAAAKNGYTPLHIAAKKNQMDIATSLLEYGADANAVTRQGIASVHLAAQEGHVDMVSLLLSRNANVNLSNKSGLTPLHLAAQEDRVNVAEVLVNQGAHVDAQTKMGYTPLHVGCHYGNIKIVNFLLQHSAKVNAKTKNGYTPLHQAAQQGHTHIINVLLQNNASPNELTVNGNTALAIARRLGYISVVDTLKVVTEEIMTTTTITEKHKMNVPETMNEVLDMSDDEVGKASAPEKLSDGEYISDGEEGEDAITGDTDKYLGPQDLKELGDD

[3] = target: T3, AnkB 28–847 (MBD + partial AI-c) (human, UniProt Q01484-2 28-847); test: as above
T3 construct: ankyrin-B (AnkB), human 220 kDa isoform, residues 28-847: MBD and a short 20-residue linker; numbers count on: human 220 kDa AnkB NM_020977.3; also called extended MBD with a short 20-residue linker; source: E. coli BL21 (DE3), purified (Ni2+-NTA, size exclusion)
T3 sequence (looked up): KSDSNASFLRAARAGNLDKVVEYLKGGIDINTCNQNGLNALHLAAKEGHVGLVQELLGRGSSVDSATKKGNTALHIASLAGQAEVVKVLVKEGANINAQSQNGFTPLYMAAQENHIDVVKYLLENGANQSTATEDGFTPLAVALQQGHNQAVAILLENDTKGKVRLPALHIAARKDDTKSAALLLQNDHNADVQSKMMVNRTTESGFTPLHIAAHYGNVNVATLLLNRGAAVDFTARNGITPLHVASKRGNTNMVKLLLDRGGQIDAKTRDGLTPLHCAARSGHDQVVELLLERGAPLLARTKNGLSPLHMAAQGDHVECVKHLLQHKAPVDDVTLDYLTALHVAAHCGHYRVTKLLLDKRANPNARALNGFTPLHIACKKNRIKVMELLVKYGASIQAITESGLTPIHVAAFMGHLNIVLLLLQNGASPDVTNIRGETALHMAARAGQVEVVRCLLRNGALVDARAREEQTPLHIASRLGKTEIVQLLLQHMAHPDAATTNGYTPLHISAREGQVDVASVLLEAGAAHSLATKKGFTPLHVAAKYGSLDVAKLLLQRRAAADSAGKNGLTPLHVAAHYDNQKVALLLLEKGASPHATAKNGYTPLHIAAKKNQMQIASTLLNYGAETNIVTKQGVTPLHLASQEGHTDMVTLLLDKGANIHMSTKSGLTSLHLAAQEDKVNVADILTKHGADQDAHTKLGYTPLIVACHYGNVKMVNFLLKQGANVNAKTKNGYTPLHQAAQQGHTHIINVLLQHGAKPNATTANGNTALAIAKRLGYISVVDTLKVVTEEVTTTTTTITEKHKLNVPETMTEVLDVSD

[4] = target: T4, AnkB_MBD (AnkB ANK repeats only, aa 28–827) (human, UniProt Q01484-2 28-827); test: ITC; VP-ITC MicroCal, 25 °C; buffer containing 500 mM NaCl, due to poor quality of AnkB 28-827 in 100 mM NaCl buffer
T4 construct: ankyrin-B (AnkB), human 220 kDa isoform, residues 28-827: the 24 ANK repeats (MBD), no linker; numbers count on: human 220 kDa AnkB NM_020977.3; Poor quality in 100 mM NaCl buffer; also called AnkB 28–827; source: E. coli BL21 (DE3), purified (Ni2+-NTA, size exclusion)
T4 sequence (looked up): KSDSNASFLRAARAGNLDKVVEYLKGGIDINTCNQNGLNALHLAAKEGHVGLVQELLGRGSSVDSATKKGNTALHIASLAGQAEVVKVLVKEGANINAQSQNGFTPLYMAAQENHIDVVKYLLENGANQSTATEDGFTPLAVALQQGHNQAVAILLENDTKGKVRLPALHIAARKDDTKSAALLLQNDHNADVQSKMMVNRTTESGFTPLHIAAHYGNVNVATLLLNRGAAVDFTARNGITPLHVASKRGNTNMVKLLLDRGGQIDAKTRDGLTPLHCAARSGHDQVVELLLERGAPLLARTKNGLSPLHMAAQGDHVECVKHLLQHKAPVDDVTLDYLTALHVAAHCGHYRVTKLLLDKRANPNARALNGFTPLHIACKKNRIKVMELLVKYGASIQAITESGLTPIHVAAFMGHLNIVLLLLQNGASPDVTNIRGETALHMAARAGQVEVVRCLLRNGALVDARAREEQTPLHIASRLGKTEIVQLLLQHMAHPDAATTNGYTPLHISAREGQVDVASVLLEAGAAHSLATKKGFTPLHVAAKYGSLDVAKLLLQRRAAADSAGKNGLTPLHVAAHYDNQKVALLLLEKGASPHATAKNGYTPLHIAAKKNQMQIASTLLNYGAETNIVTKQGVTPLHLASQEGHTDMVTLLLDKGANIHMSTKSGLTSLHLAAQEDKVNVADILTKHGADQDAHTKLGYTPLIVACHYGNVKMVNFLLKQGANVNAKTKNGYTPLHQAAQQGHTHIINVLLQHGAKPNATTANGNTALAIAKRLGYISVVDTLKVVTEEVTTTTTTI

[5] = target: T4, AnkB_MBD (AnkB ANK repeats only, aa …); test: fluorescence polarisation; PerkinElmer LS-55 fluorimeter with automated polarizer, 25 °C; one-site binding model

B1: E-cadherin (aa 734–884) (domain or fragment)
chain: not shown
notes: source: E. coli BL21 (DE3), purified (Ni2+-NTA, size exclusion)
**Q.** Does B1 bind [1]?
**A.** binds

**Q.** Does B1 bind [2]?
**A.** binds

**Q.** Does B1 bind [3]?
**A.** binds

B2: AnkG_AI-b (aa 875–903) (domain or fragment, rat, UniProt O70511-1 875-903, looked up)
chain: SDGEEGEDAITGDTDKYLGPQDLKELGDD
notes: numbers count on: rat AnkG NM_001033984.1 (MBD-UPA); source: E. coli BL21 (DE3), purified (Ni2+-NTA, size exclusion)
**Q.** Does B2 bind [1]?
**A.** binds

B3: AnkG long linker (aa 837–920; AI-c + AI-b) (domain or fragment, rat, UniProt O70511-1 837-920, looked up)
chain: TEKHKMNVPETMNEVLDMSDDEVGKASAPEKLSDGEYISDGEEGEDAITGDTDKYLGPQDLKELGDDSLPAEGYVGFSLGARSA
notes: as for B2
**Q.** Does B3 bind [1]?
**A.** binds

B4: AnkB entire linker (aa 828–965) (domain or fragment, human, UniProt Q01484-2 828-965, looked up)
chain: TEKHKLNVPETMTEVLDVSDEEGDDTMTGDGGEYLRPEDLKELGDDSLPSSQFLDGMNYLRYSLEGGRSDSLRSFSSDRSHTLSHASYLRDSAVMDDSVVIPSHQVSTLAKEAERNSYRLSWGTENLDNVALSSSPIH
notes: numbers count on: human 220 kDa AnkB NM_020977.3; also called Linker (contains AI-c + AI-b); AnkB linker region; source: E. coli BL21 (DE3), purified (Ni2+-NTA, size exclusion)
**Q.** For B4, which Kd [4] is on record?
**A.** ~0.044 µM

**Q.** And the Kd [3]?
**A.** ~4.2 µM

B5: AnkB_AI-a peptide (aa 1623–1635) (peptide, UniProt Q01484-2 1623-1635, looked up)
peptide: HPPIVSEEDISVG
notes: ankyrin-B (AnkB), human 220 kDa isoform, 13-residue AI-a segment of the C-terminal tail, residues 1623-1635; numbers count on: human 220 kDa AnkB NM_020977.3; The text says a peptide encompassing the AI-a segment, so it may be longer than 1623-1635; The fluorescent label of the polarisation assay is not described here (protocol of Wang et al., 2014)
**Q.** Which Kd [5] does the source give for B5 here?
**A.** ~7.3 µM

B6: AnkG linker ΔAI-c (aa 861–920) (domain or fragment, rat, UniProt O70511-1 861-920, looked up)
chain: KASAPEKLSDGEYISDGEEGEDAITGDTDKYLGPQDLKELGDDSLPAEGYVGFSLGARSA
notes: ankyrin-G (AnkG), rat, linker residues 861-920, lacking AI-c; numbers count on: rat AnkG NM_001033984.1 (MBD-UPA); also called AnkG 861–920; shorter version of the linker; source: E. coli BL21 (DE3), purified (Ni2+-NTA, size exclusion)
**Q.** Does B6 bind [1]?
**A.** binds
